Where two headings read alike, the source gives them in different places.
How the values were obtained:
[1] = Urea titration of emission intensity spectra (Nanodrop3300) with ratiometric analysis, singly labeled conjugates; assay type: binding; design: key to Acrylodan Intensity / Badan Intensity: +, increases in response to urea; −, decreases; 0, no change; key to Badan Dipoles / Acrylodan Dipoles: blue, (maxima <500 nm); g, green (maxima >500 nm); b/g, mixed population; key to Acrylodan Shape / Badan Shape: m, monochromatic; d, dichromatic (i.e. spectral shape changes); 0, no change; conditions: for Acrylodan Intensity / Badan Intensity: emission intensity change on urea; for Acrylodan Shape / Badan Shape: emission spectrum shape change on urea; for Acrylodan Dipoles / Badan Dipoles: estimated change in populations of major emission bands; for Kd: urea
Description: Determination of emission intensity spectra.
(§1) Ratiometric analysis of urea binding. […] 2
(§2) For a single urea-binding site, the fractional saturation is given by
(§3) [formula] where [L] is the ligand (urea) concentration and Kd the dissociation constant, ^trueKd for ytrue.
[formula] where ^appIλ2 and ^satIλ2 are the emission intensities of the monochromatic signal at wavelength λ2 of the ligand-free and ligand-bound protein, respectively.

[2] = Temperature- and urea-dependent fluorescence landscapes of fluorescent conjugates (Roche LightCycler); assay type: binding; design: key: y, yes; n, no; conditions: fluorescent response to urea
Procedure: We constructed 20 single cysteine mutants in csUBP7, exploring 7 endosteric, 12 peristeric, and 1 allosteric position (FIG. 9). At each position we attached the Prodan-derived fluorophores Acrylodan and Badan, which differ by one methylene group in their thiol-reactive linker. The fluorescent responses of these conjugates was determined initially as a function of urea concentration and temperature (FIG. 10). […] The ligand dependence of the emission spectra shapes was determined for these conjugates (Table 8).
Determination of temperature- and ligand-dependent fluorescence landscapes. […] Urea concentrations were varied from 0-4.8 M in 20 mM KCl, 20 mM MOPS (pH 7.4). […] Temperatures were advanced in 1K steps.
as §1, §2, §3
To obtain the temperature dependence of the binding reaction, the Kd values of all the individually determined isotherms were fit the Gibbs-Hemholtz equation (Layton and Hellinga, 2010, Biochemistry, 49, 10831-41):
[formula] where ΔGb^•(T) is the standard free energy of binding at 1 M ligand at temperature T,
[formula] Δ^refHb^• and Δ^refSb^• the molar enthalpy and entropy of binding, respectively, at the reference temperature, Tref, and ΔCp,b the heat capacity of the binding reaction.

[3] = csUBP7 Acrylodan conjugate, read-out: Acrylodan ^trueKd
[4] = csUBP7 Badan conjugate, read-out: Badan ^trueKd

| Molecule | Acrylodan Intensity ([1]; csUBP7 Acrylodan conjugate) | Acrylodan Shape ([1]; csUBP7 Acrylodan conjugate) | Acrylodan Dipoles ([1]; csUBP7 Acrylodan conjugate) | Kd [1, 3] | Badan Intensity ([1]; csUBP7 Badan conjugate) | Badan Shape ([1]; csUBP7 Badan conjugate) | Badan Dipoles ([1]; csUBP7 Badan conjugate) | Kd [1, 4] | Response ([2]; Acrylodan conjugate) | Response ([2]; Badan conjugate) |
| --- | --- | --- | --- | --- | --- | --- | --- | --- | --- | --- |
| csUBP7 S30C: csUBP7 30C cysteine mutant (SEQ ID NO: 25), tested as Acrylodan and Badan conjugates (conjugate, Acrylodan or Badan conjugate; csUBP7_30C (30C substitution mutant with signal peptide replaced with M and a GGSHHHHHH at C-terminus, and also comprising a C89A substitution)) MSSSESEKEKSEETIKVGILHSLSGTMSICEVSLKDAELMAIEEINNNGGVLGKKLEPIVEDGASDWPTFAEKAKKLLQKDKVAVIFGAWTSASRKAVLPVVEENNGLLFYPVQYEGLESSPNIFYMGAAPNQQIVPAVKWLFDNGKKRFYLLGSDYVFPRTANKIIKAYLKYLGGVVVGEEYTPLGHTDYSSVINKIKAAKPDVVFNTLNGDSNVAFFKQLKDAGIDANTLPVMSVSIAEEEIKGIGPEYLKGHLVTWNYFQSVDTPENKEFVEKYKKKYGEDRVTDDPIEAAYIGVYLWAKAVEKAGSTDVDKVREAAKGIEFNAPEGPVKIDGDNQHLYKTVRIGEILENGQIRELWKTNKPVKPDPYLKGYEWAQGLSEQGGSHHHHHH | + | d | b/g→b | 5.2 mM | + | d | g→b | 0.3 mM | y | y |
| csUBP7 E116C: csUBP7 116C cysteine mutant (SEQ ID NO: 36), tested as Acrylodan and Badan conjugates (conjugate, Acrylodan or Badan conjugate; csUBP7_116C (116C substitution mutant with signal peptide replaced with M and a GGSHHHHHH at C-terminus, and also comprising a C89A substitution)) MSSSESEKEKSEETIKVGILHSLSGTMSISEVSLKDAELMAIEEINNNGGVLGKKLEPIVEDGASDWPTFAEKAKKLLQKDKVAVIFGAWTSASRKAVLPVVEENNGLLFYPVQYCGLESSPNIFYMGAAPNQQIVPAVKWLFDNGKKRFYLLGSDYVFPRTANKIIKAYLKYLGGVVVGEEYTPLGHTDYSSVINKIKAAKPDVVFNTLNGDSNVAFFKQLKDAGIDANTLPVMSVSIAEEEIKGIGPEYLKGHLVTWNYFQSVDTPENKEFVEKYKKKYGEDRVTDDPIEAAYIGVYLWAKAVEKAGSTDVDKVREAAKGIEFNAPEGPVKIDGDNQHLYKTVRIGEILENGQIRELWKTNKPVKPDPYLKGYEWAQGLSEQGGSHHHHHH | + | d | b/g→g | 29 mM | − | m | b/g | 10 mM | y | y |
| csUBP7 W90C: csUBP7 90C cysteine mutant (SEQ ID NO: 28), tested as Acrylodan and Badan conjugates (conjugate, Acrylodan or Badan conjugate; csUBP7_90C (90C substitution mutant with signal peptide replaced with M and a GGSHHHHHH at C-terminus, and also comprising a C89A substitution)) MSSSESEKEKSEETIKVGILHSLSGTMSISEVSLKDAELMAIEEINNNGGVLGKKLEPIVEDGASDWPTFAEKAKKLLQKDKVAVIFGACTSASRKAVLPVVEENNGLLFYPVQYEGLESSPNIFYMGAAPNQQIVPAVKWLFDNGKKRFYLLGSDYVFPRTANKIIKAYLKYLGGVVVGEEYTPLGHTDYSSVINKIKAAKPDVVFNTLNGDSNVAFFKQLKDAGIDANTLPVMSVSIAEEEIKGIGPEYLKGHLVTWNYFQSVDTPENKEFVEKYKKKYGEDRVTDDPIEAAYIGVYLWAKAVEKAGSTDVDKVREAAKGIEFNAPEGPVKIDGDNQHLYKTVRIGEILENGQIRELWKTNKPVKPDPYLKGYEWAQGLSEQGGSHHHHHH | + | d | b/g→b | 7.1 mM | + | m | b/g | 8.5 mM | y | y |
| csUBP7 T69C: csUBP7 69C cysteine mutant (SEQ ID NO: 27), tested as Acrylodan and Badan conjugates (conjugate, Acrylodan or Badan conjugate; csUBP7_69C (69C substitution mutant with signal peptide replaced with M and a GGSHHHHHH at C-terminus, and also comprising a C89A substitution)) MSSSESEKEKSEETIKVGILHSLSGTMSISEVSLKDAELMAIEEINNNGGVLGKKLEPIVEDGASDWPCFAEKAKKLLQKDKVAVIFGAWTSASRKAVLPVVEENNGLLFYPVQYEGLESSPNIFYMGAAPNQQIVPAVKWLFDNGKKRFYLLGSDYVFPRTANKIIKAYLKYLGGVVVGEEYTPLGHTDYSSVINKIKAAKPDVVFNTLNGDSNVAFFKQLKDAGIDANTLPVMSVSIAEEEIKGIGPEYLKGHLVTWNYFQSVDTPENKEFVEKYKKKYGEDRVTDDPIEAAYIGVYLWAKAVEKAGSTDVDKVREAAKGIEFNAPEGPVKIDGDNQHLYKTVRIGEILENGQIRELWKTNKPVKPDPYLKGYEWAQGLSEQGGSHHHHHH |  | 0 | g (g, green (maxima >500 nm)) |  | − | d | g→b/g | 0.007 mM | n | y |
| csUBP7 T91C: csUBP7 91C cysteine mutant (SEQ ID NO: 29), tested as Acrylodan and Badan conjugates (conjugate, Acrylodan or Badan conjugate; csUBP7_91C (91C substitution mutant with signal peptide replaced with M and a GGSHHHHHH at C-terminus, and also comprising a C89A substitution)) MSSSESEKEKSEETIKVGILHSLSGTMSISEVSLKDAELMAIEEINNNGGVLGKKLEPIVEDGASDWPTFAEKAKKLLQKDKVAVIFGAWCSASRKAVLPVVEENNGLLFYPVQYEGLESSPNIFYMGAAPNQQIVPAVKWLFDNGKKRFYLLGSDYVFPRTANKIIKAYLKYLGGVVVGEEYTPLGHTDYSSVINKIKAAKPDVVFNTLNGDSNVAFFKQLKDAGIDANTLPVMSVSIAEEEIKGIGPEYLKGHLVTWNYFQSVDTPENKEFVEKYKKKYGEDRVTDDPIEAAYIGVYLWAKAVEKAGSTDVDKVREAAKGIEFNAPEGPVKIDGDNQHLYKTVRIGEILENGQIRELWKTNKPVKPDPYLKGYEWAQGLSEQGGSHHHHHH | − | m | b/g | 0.7 mM | − | d | b/g→b | 0.6 mM | n | y |
